Columns and labels:
[1] = target: yeast Hsp90 W300E (S. cerevisiae) (UniProt P02829); test: AUC; as a1, with 2 mM AMP–PNP
[2] = target: yeast Hsp90 W300A (S. cerevisiae) (UniProt P02829); test: AUC; as a1, with 2 mM AMP–PNP
[3] = target: yeast Hsp90 W300E (S. cerevisiae) (UniProt P02829); test: AUC; as a1, with 2 mM ATPγS
[4] = target: yeast Hsp90 W300A (S. cerevisiae) (UniProt P02829); test: AUC; as a1, with 2 mM ATPγS

Measured: percent of labelled GR-LBD in complex

human glucocorticoid receptor ligand binding domain (GR-LBD) (domain or fragment)
< 5%: [1] | [2] | [3] | [4]

From article PMC5902578
